Experimental data taken from article PMC9167300, “The LCK-14-3-3ζ-TRPM8 axis regulates TRPM8 function/assembly and promotes pancreatic cancer malignancy” (Cell Death & Disease, 2022).

Target: T1, His-LCK fusion (human, UniProt P06239 1-509)
T1 construct: human LCK cDNA subcloned into pET28a(+); also called His-fused LCK; source: E. coli BL21, purified (Ni-NTA agarose)
Experiment: pull-down; protein-protein interaction assay in vitro: 150 μg His-LCK eluted from Ni-NTA incubated with GST or GST-M8C bound to GST-agarose beads, 1 h at room temperature; Western blot
Conditions: both partners purified

T1 sequence (P06239 whole entry, the tested form may be a part): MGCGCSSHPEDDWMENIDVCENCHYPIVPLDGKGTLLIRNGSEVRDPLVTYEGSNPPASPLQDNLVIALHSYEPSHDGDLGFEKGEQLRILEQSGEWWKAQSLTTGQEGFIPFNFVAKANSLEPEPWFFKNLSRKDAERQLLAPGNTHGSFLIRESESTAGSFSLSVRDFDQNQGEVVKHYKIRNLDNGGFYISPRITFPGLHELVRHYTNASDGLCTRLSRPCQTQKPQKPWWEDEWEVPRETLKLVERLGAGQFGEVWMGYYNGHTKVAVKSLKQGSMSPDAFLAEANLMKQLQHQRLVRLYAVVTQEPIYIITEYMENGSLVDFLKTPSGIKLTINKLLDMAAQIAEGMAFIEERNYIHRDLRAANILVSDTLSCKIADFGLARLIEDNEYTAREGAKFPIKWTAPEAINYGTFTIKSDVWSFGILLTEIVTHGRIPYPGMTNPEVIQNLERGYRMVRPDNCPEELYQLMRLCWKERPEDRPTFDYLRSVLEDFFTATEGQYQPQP

binding result: binds
B1: GST-tagged C-terminus of TRPM8 (GST-M8C) (domain or fragment, rat, UniProt Q8R455 980-1104, looked up)
chain: GYTVGIVQENNDQVWKFQRYFLVQEYCNRLNIPFPFVVFAYFYMVVKKCFKCCCKEKNTESSACCFRNEDNETLAWEGVMKENYLVKINTKANDNAEEMRHRFRQLDTKLNDLKGLLKEIANKIK
notes: C-terminus of rat TRPM8 (M8C), amino acids 980-1104, in pGEX-4T-1; source: E. coli BL21, purified (glutathione beads)
